Measured values as given in paper PMC2987827.

Legend:
Assay in all cases: cross-linking; 293T cells coexpressing FLAG- and HA-tagged Gag and V1B-MS2 viral RNA treated with 1 mM EGS, 30 min, room temperature; membrane flotation; cytoplasmic fraction (10th fraction) analysed by anti-FLAG western blot
[1] = target: HIV-1 Gag, FLAG- and HA-tagged (wild type) (HIV-1)
[2] = target: HIV-1 G2A-Gag, FLAG- and HA-tagged (HIV-1)
[3] = target: HIV-1 Gag-delCTD, FLAG- and HA-tagged (lacking the C-terminal domain of capsid) (HIV-1)

For “HIV-1 Gag, FLAG- and HA-tagged (wild type) (natural protein)”, the stoichiometry N [1] was 2.
Work on “HIV-1 G2A-Gag, FLAG- and HA-tagged (natural protein)” yielded a stoichiometry N [2] of 2.
For “HIV-1 Gag-delCTD, FLAG- and HA-tagged (lacking the C-terminal domain of capsid) (natural protein)”, the stoichiometry N [3] was 2.
